Experimental data: publication PMC7614720

Test system: C[C@@H](O)[C@H]1C(=O)N2C(C(=O)O)=C([C@H]3CCCO3)S[C@H]12
Experiment: purified protein
Conditions: two Zn2+ ions active site

## VIM-2 (Pseudomonas aeruginosa)
  Km: 5.11 µM
  kcat: 36.7 s⁻¹
  kcat/Km: 7.17e+06 M⁻¹ s⁻¹
